# B1: Hereditary hemochromatosis protein (Homo sapiens), Q30201 (parent)
# chain: MGPRARPALLLLMLLQTAVLQGRLLRSHSLHYLFMGASEQDLGLSLFEALGYVDDQLFVFYDHESRRVEPRTPWVSSRISSQMWLQLSQSLKGWDHMFTVDFWTIMENHNHSKESHTLQVILGCEMQEDNSTEGYWKYGYDGQDHLEFCPDTLDWRAAEPRAWPTKLEWERHKIRARQNRAYLERDCPAQLQQLLELGRGVLDQQVPPLVKVTHHVTSSVTTLRCRALNYYPQNITMKWLKDKQPMDAKEFEPKDVLPNGDGTYQGWITLAVPPGEEQRYTCQVEHPGLDQPLIVIWEPSPSGTLVIGVISGIAVFVVILFIGILFIILRKRQGSRGAMGHYVLAERE
# Variants of: B1
# Settings: with b2mg_human B2M
row,effect of a mutation on the interaction,Variant
1,disrupting interaction,Q283P

# Variants of: B1
# Settings: with tfr1_human TFRC
row,effect of a mutation on the interaction,Variant
1,disrupting interaction,Q283P

# Source: IntAct's records for PubMed 15965644
